The values below come from paper doi:10.1101/433532.

For the assay, the target named is recombinant CSN^ΔCSNAP complex (eight subunits, WT CSN5) (UniProt Q13098). The experiment in a line: native MS.

As to “CSNAP, recombinant subunit co-expressed in the CSN complex (natural protein)”, the stoichiometry N came out at 1.

By stoichiometry N is commonly meant the number of molecules, sites or subunits per partner or assembly.
